Laboratory results as given in US20200283478A1 (Genentech, published 2020).
Like-named read-outs stand apart in the source and are kept apart here. Numbered stars: 1 amine (or outer) side, 2 acyl side, 3 side chain; on linkers, the order of the positions; unused ones are H or OH. Bridge positions count the residues as written; N and C are the ends. Square brackets hold non-standard residues; d marks the D form. NH(CH2)9CO = O=C(CCCCCCCCCN[*:1])[*:2]; NH(CH2)8CO = O=C(CCCCCCCCN[*:1])[*:2]; Aun = NCCCCCCCCCCC(=O)O

Legend:
[1] = target: T1, proprotein convertase subtilisin/kexin type 9 (PCSK9) (human, UniProt Q8NBP7 31-692); assay: phage spot ELISA
T1 construct: His-tagged full-length PCSK9 in TR-FRET and SPR, biotinylated in phage ELISA; secreted protein is autoprocessed (prodomain plus catalytic/CRD chain starting at S153); also called rec.PCSK9; His-PCSK9
From the text: The binding signal of the same phage particle to NeutrAvidin was considered as non-specific binding (“noise”).

PCSK9Δhelix [2] = target: T2, PCSK9Δhelix (human, Chemically biotinylated in the phage ELISAs; the site is not given.); assay: phage spot ELISA
T2 construct: construct M1-Q692 with engineered TEV site, cleaved by TEV; also called His-PCSK9Δhelix; open groove PCSK9Δhelix

[3] = target: T1, proprotein convertase subtilisin/kexin …; assay: phage spot ELISA; remark: listed apart in the source
PCSK9Δhelix [4] = target: T2, PCSK9Δhelix; assay: phage spot ELISA; remark: listed apart in the source
[5] = target: T3, His-tagged, full-length PCSK9 (human, UniProt Q8NBP7 31-692); assay: TR-FRET competition (PCSK9/EGF(A) assay); competitor EGF(A)-Fc;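 also: proximity signal from anti-His APC on PCSK9 paired with anti-Fc europium on the Fc ligand, read as normalized TR-FRET ratio across compound dilutions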
T3 construct: secreted PCSK9 is autocatalytically cleaved into prodomain and catalytic domain + CRD (from S153), which stay associated; also called His-PCSK9; proprotein convertase subtilisin/kexin type 9; not shown: His tag
T3 sequence (Q8NBP7 31-692 limits assumed): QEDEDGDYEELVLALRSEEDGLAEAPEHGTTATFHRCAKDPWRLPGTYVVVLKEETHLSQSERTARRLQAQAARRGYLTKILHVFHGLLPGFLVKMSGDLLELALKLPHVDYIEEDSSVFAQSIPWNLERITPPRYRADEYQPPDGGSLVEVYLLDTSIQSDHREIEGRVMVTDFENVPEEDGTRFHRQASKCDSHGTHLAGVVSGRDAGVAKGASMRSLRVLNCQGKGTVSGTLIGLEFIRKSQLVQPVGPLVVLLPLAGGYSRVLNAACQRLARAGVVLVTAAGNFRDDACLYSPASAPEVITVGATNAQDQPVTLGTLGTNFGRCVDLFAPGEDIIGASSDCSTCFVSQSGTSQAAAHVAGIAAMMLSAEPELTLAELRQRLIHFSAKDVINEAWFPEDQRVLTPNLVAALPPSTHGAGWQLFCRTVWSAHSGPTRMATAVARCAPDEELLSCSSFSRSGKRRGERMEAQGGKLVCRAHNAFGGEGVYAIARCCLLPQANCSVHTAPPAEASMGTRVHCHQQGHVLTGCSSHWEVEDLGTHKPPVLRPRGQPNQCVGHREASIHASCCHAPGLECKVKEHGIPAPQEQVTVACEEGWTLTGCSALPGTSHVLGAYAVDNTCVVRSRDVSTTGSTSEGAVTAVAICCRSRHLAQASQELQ

T2 sequence (prodomain, as listed by the source mutant limits assumed, chain 1 of 2): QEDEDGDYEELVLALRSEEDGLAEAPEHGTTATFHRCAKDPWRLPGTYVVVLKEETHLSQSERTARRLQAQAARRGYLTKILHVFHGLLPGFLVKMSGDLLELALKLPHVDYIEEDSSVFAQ
T2 sequence (chain, as listed by the source mutant limits assumed, chain 2 of 2): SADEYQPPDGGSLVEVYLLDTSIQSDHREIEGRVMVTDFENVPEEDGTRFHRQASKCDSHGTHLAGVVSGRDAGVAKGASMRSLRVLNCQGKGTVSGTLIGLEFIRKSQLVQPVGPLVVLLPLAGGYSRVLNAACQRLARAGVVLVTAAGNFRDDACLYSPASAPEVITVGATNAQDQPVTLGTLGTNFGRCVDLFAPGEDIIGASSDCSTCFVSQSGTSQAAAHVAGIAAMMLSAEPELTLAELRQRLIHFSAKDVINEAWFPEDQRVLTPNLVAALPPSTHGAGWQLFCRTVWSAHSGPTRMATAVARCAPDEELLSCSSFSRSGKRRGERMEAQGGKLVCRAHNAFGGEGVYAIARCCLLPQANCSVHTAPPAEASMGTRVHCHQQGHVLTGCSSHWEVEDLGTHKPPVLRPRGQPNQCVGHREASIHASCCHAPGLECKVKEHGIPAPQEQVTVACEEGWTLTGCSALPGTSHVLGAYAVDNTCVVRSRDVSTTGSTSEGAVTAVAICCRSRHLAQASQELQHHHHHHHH
T1 sequence (Q8NBP7 other isoform, or with tags, fused parts or gaps limits assumed): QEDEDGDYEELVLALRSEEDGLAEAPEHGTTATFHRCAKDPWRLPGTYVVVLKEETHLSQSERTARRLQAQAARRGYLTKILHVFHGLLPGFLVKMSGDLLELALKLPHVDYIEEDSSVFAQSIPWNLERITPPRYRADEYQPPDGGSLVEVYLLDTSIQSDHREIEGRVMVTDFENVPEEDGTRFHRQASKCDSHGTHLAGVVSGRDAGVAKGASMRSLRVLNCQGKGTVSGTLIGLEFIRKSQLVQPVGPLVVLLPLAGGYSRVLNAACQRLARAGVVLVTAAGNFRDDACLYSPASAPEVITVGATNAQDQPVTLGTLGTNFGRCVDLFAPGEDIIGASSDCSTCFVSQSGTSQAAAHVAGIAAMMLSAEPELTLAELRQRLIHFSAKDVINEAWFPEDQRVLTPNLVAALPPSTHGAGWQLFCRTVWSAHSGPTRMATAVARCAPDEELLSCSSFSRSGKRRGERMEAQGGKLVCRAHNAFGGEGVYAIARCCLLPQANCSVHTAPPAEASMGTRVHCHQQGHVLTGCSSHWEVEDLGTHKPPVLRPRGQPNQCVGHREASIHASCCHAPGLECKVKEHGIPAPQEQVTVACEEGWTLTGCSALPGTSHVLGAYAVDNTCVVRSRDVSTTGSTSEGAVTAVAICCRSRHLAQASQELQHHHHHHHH

Binder: TAFTSWEEYLDWVGSGVPWNLARL [SEQ ID NO 314]
- ELISA [1]: 2.82
- s/n ratio [1]: 29.3
- ELISA (PCSK9Δhelix [2]): 2.68
- s/n ratio (PCSK9Δhelix [2]): 27.3

Binder: TAFTSWEEYLDWVGSGVPWNLAKI [SEQ ID NO 315]
- ELISA [1]: 2.69
- s/n ratio [1]: 22.4
- ELISA (PCSK9Δhelix [2]): 2.67
- s/n ratio (PCSK9Δhelix [2]): 24.1

Binder: TAFTSWEEYLDWVGSGTRYADRGVMVYSLS [SEQ ID NO 321]
- ELISA [1]: 2.85
- s/n ratio [1]: 23
- ELISA (PCSK9Δhelix [2]): 2.81
- s/n ratio (PCSK9Δhelix [2]): 22.8
- ELISA [3]: 3.03
- s/n ratio [3]: 30.3
- ELISA (PCSK9Δhelix [4]): 3.03
- s/n ratio (PCSK9Δhelix [4]): 27.5

B1: Compound 107 (Ac-CRLpWNLQRIGLPC-NH2) (peptide)
peptide: Ac-CRL[dP]WNLQRIGLPC-NH2
modifications: disulfide 1-14
SMILES: CC[C@H](C)[C@@H]1NC(=O)[C@H](CCCNC(=N)N)NC(=O)[C@H](CCC(N)=O)NC(=O)[C@H](CC(C)C)NC(=O)[C@H](CC(N)=O)NC(=O)[C@H](Cc2c[nH]c3ccccc23)NC(=O)[C@H]2CCCN2C(=O)[C@H](CC(C)C)NC(=O)[C@H](CCCNC(=N)N)NC(=O)[C@@H](NC(C)=O)CSSC[C@@H](C(N)=O)NC(=O)[C@@H]2CCCN2C(=O)[C@H](CC(C)C)NC(=O)CNC1=O
- IC50 [5]: > 50 µM

B2: Compound 101 (Ac-CRLPWNLQRiGLPC-NH2) (peptide)
peptide: Ac-CRLPWNLQR[dI]GLPC-NH2
modifications: disulfide 1-14
SMILES: CC[C@@H](C)[C@H]1NC(=O)[C@H](CCCNC(=N)N)NC(=O)[C@H](CCC(N)=O)NC(=O)[C@H](CC(C)C)NC(=O)[C@H](CC(N)=O)NC(=O)[C@H](Cc2c[nH]c3ccccc23)NC(=O)[C@@H]2CCCN2C(=O)[C@H](CC(C)C)NC(=O)[C@H](CCCNC(=N)N)NC(=O)[C@@H](NC(C)=O)CSSC[C@@H](C(N)=O)NC(=O)[C@@H]2CCCN2C(=O)[C@H](CC(C)C)NC(=O)CNC1=O
- IC50 [5]: > 50 µM

Binder: TAFTSWEEYLDWVGSGALWNMRRVESVAFR [SEQ ID NO 319]
- ELISA [1]: 3.09
- s/n ratio [1]: 23.9
- ELISA (PCSK9Δhelix [2]): 3.04
- s/n ratio (PCSK9Δhelix [2]): 20.1

Binder: TAFTSWEEYLDWVGSGMPWNLARIER [SEQ ID NO 318]
- ELISA [1]: 2.86
- s/n ratio [1]: 27.8
- ELISA (PCSK9Δhelix [2]): 3
- s/n ratio (PCSK9Δhelix [2]): 30.3

Binder: TAFTSWEEYLDWVGSGGEYLWNLKRLES [SEQ ID NO 320]
- ELISA [1]: 2.84
- s/n ratio [1]: 28.7
- ELISA (PCSK9Δhelix [2]): 2.94
- s/n ratio (PCSK9Δhelix [2]): 26

B3: Compound 84 (Ac-CRLPWNLQR-(Ade)-C-NH2) (peptide)
peptide: Ac-CRLPWNLQR[NH(CH2)9CO]C-NH2
modifications: disulfide 1-11
SMILES: CC(=O)N[C@H]1CSSC[C@@H](C(N)=O)NC(=O)CCCCCCCCCNC(=O)[C@H](CCCNC(=N)N)NC(=O)[C@H](CCC(N)=O)NC(=O)[C@H](CC(C)C)NC(=O)[C@H](CC(N)=O)NC(=O)[C@H](Cc2c[nH]c3ccccc23)NC(=O)[C@@H]2CCCN2C(=O)[C@H](CC(C)C)NC(=O)[C@H](CCCNC(=N)N)NC1=O
- IC50 [5]: > 50 µM

B4: Compound 106 (Ac-CRLPwNLQRIGLPC-NH2) (peptide)
peptide: Ac-CRLP[dW]NLQRIGLPC-NH2
modifications: disulfide 1-14
SMILES: CC[C@H](C)[C@@H]1NC(=O)[C@H](CCCNC(=N)N)NC(=O)[C@H](CCC(N)=O)NC(=O)[C@H](CC(C)C)NC(=O)[C@H](CC(N)=O)NC(=O)[C@@H](Cc2c[nH]c3ccccc23)NC(=O)[C@@H]2CCCN2C(=O)[C@H](CC(C)C)NC(=O)[C@H](CCCNC(=N)N)NC(=O)[C@@H](NC(C)=O)CSSC[C@@H](C(N)=O)NC(=O)[C@@H]2CCCN2C(=O)[C@H](CC(C)C)NC(=O)CNC1=O
- IC50 [5]: > 50 µM

B5: Compound 102 (Ac-CRLPWNLQrIGLPC-NH2) (peptide)
peptide: Ac-CRLPWNLQ[dR]IGLPC-NH2
modifications: disulfide 1-14
SMILES: CC[C@H](C)[C@@H]1NC(=O)[C@@H](CCCNC(=N)N)NC(=O)[C@H](CCC(N)=O)NC(=O)[C@H](CC(C)C)NC(=O)[C@H](CC(N)=O)NC(=O)[C@H](Cc2c[nH]c3ccccc23)NC(=O)[C@@H]2CCCN2C(=O)[C@H](CC(C)C)NC(=O)[C@H](CCCNC(=N)N)NC(=O)[C@@H](NC(C)=O)CSSC[C@@H](C(N)=O)NC(=O)[C@@H]2CCCN2C(=O)[C@H](CC(C)C)NC(=O)CNC1=O
- IC50 [5]: > 50 µM

B6: Compound 105 (Ac-CRLPWnLQRIGLPC-NH2) (peptide)
peptide: Ac-CRLPW[dN]LQRIGLPC-NH2
modifications: disulfide 1-14
SMILES: CC[C@H](C)[C@@H]1NC(=O)[C@H](CCCNC(=N)N)NC(=O)[C@H](CCC(N)=O)NC(=O)[C@H](CC(C)C)NC(=O)[C@@H](CC(N)=O)NC(=O)[C@H](Cc2c[nH]c3ccccc23)NC(=O)[C@@H]2CCCN2C(=O)[C@H](CC(C)C)NC(=O)[C@H](CCCNC(=N)N)NC(=O)[C@@H](NC(C)=O)CSSC[C@@H](C(N)=O)NC(=O)[C@@H]2CCCN2C(=O)[C@H](CC(C)C)NC(=O)CNC1=O
- IC50 [5]: > 50 µM

B7: Compound 103 (Ac-CRLPWNLqRIGLPC-NH2) (peptide)
peptide: Ac-CRLPWNL[dQ]RIGLPC-NH2
modifications: disulfide 1-14
SMILES: CC[C@H](C)[C@@H]1NC(=O)[C@H](CCCNC(=N)N)NC(=O)[C@@H](CCC(N)=O)NC(=O)[C@H](CC(C)C)NC(=O)[C@H](CC(N)=O)NC(=O)[C@H](Cc2c[nH]c3ccccc23)NC(=O)[C@@H]2CCCN2C(=O)[C@H](CC(C)C)NC(=O)[C@H](CCCNC(=N)N)NC(=O)[C@@H](NC(C)=O)CSSC[C@@H](C(N)=O)NC(=O)[C@@H]2CCCN2C(=O)[C@H](CC(C)C)NC(=O)CNC1=O
- IC50 [5]: > 50 µM

Binder: TAFTSWEEYLDWVGSGNELWNINRLRSS [SEQ ID NO 317]
- ELISA [1]: 2.94
- s/n ratio [1]: 12
- ELISA (PCSK9Δhelix [2]): 2.76
- s/n ratio (PCSK9Δhelix [2]): 13.2

B8: Compound 100 (Ac-CRLPWNLQRIGlPC-NH2) (peptide)
peptide: Ac-CRLPWNLQRIG[dL]PC-NH2
modifications: disulfide 1-14
SMILES: CC[C@H](C)[C@@H]1NC(=O)[C@H](CCCNC(=N)N)NC(=O)[C@H](CCC(N)=O)NC(=O)[C@H](CC(C)C)NC(=O)[C@H](CC(N)=O)NC(=O)[C@H](Cc2c[nH]c3ccccc23)NC(=O)[C@@H]2CCCN2C(=O)[C@H](CC(C)C)NC(=O)[C@H](CCCNC(=N)N)NC(=O)[C@@H](NC(C)=O)CSSC[C@@H](C(N)=O)NC(=O)[C@@H]2CCCN2C(=O)[C@@H](CC(C)C)NC(=O)CNC1=O
- IC50 [5]: > 50 µM

B9: Compound 85 (Ac-CRLPWNLQR-(Ano)-C-NH2) (peptide)
peptide: Ac-CRLPWNLQR[NH(CH2)8CO]C-NH2
modifications: disulfide 1-11
SMILES: CC(=O)N[C@H]1CSSC[C@@H](C(N)=O)NC(=O)CCCCCCCCNC(=O)[C@H](CCCNC(=N)N)NC(=O)[C@H](CCC(N)=O)NC(=O)[C@H](CC(C)C)NC(=O)[C@H](CC(N)=O)NC(=O)[C@H](Cc2c[nH]c3ccccc23)NC(=O)[C@@H]2CCCN2C(=O)[C@H](CC(C)C)NC(=O)[C@H](CCCNC(=N)N)NC1=O
- IC50 [5]: > 50 µM

Binder: TAFTSWEEYLDWVGSGGHPLWNLSRI [SEQ ID NO 316]
- ELISA [1]: 2.73
- s/n ratio [1]: 25.7
- ELISA (PCSK9Δhelix [2]): 2.6
- s/n ratio (PCSK9Δhelix [2]): 9.12

Binder: TAFTSWEEYLDWVGSGMVYVDRGVRVFT [SEQ ID NO 322]
- ELISA [1]: 2.82
- s/n ratio [1]: 27.9
- ELISA (PCSK9Δhelix [2]): 2.71
- s/n ratio (PCSK9Δhelix [2]): 25.1

B10: Compound 83 (Ac-CRLPWNLQR-(Aun)-C-NH2) (peptide)
peptide: Ac-CRLPWNLQR[Aun]C-NH2
modifications: disulfide 1-11
SMILES: CC(=O)N[C@H]1CSSC[C@@H](C(N)=O)NC(=O)CCCCCCCCCCNC(=O)[C@H](CCCNC(=N)N)NC(=O)[C@H](CCC(N)=O)NC(=O)[C@H](CC(C)C)NC(=O)[C@H](CC(N)=O)NC(=O)[C@H](Cc2c[nH]c3ccccc23)NC(=O)[C@@H]2CCCN2C(=O)[C@H](CC(C)C)NC(=O)[C@H](CCCNC(=N)N)NC1=O
- IC50 [5]: > 50 µM

Binder: TAFTSWEEYLDWVGSGRGGYELNIPR [SEQ ID NO 326]
- ELISA [1]: 2.93
- s/n ratio [1]: 26.1
- ELISA (PCSK9Δhelix [2]): 2.69
- s/n ratio (PCSK9Δhelix [2]): 18.8
- ELISA [3]: 3.13
- s/n ratio [3]: 29.8
- ELISA (PCSK9Δhelix [4]): 2.92
- s/n ratio (PCSK9Δhelix [4]): 25.6

B11: Compound 104 (Ac-CRLPWNlQRIGLPC-NH2) (peptide)
peptide: Ac-CRLPWN[dL]QRIGLPC-NH2
modifications: disulfide 1-14
SMILES: CC[C@H](C)[C@@H]1NC(=O)[C@H](CCCNC(=N)N)NC(=O)[C@H](CCC(N)=O)NC(=O)[C@@H](CC(C)C)NC(=O)[C@H](CC(N)=O)NC(=O)[C@H](Cc2c[nH]c3ccccc23)NC(=O)[C@@H]2CCCN2C(=O)[C@H](CC(C)C)NC(=O)[C@H](CCCNC(=N)N)NC(=O)[C@@H](NC(C)=O)CSSC[C@@H](C(N)=O)NC(=O)[C@@H]2CCCN2C(=O)[C@H](CC(C)C)NC(=O)CNC1=O
- IC50 [5]: > 50 µM
